# Laboratory results: the RNAGym collection of RNA variant scans (doi:10.1073/pnas.2313332121)
# B1: TPR t1 (parent)
# chain: GACCAAUCUGCCCUCAGAGCUCGAGAACAUCUUCGGAUGCAGAGGAGGCAGGCUUCGGUGGCGCGAUAGCGCCAACGUCCUCAACCUCCAAUGCAUCCCACCACAUGAUGAUGCCUGAAGAGCCUUGGUUUUUUG
# Variants of: B1
# Experiment: polymerase ribozyme fitness, log enrichment relative to wild type (log ratio); higher = more active; in vitro selection for triplet polymerase activity
# Procedure, shortened: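 Mutant libraries of both subunits of a heterodimeric triplet polymerase ribozyme were PCR-built, transcribed, and selected once in triplicate, with frozen incubation at −7 °C and capture of gel-excised extended constructs on streptavidin beads before RT-PCR. Illumina sequencing of input and output libraries was filtered to genotypes with ≥10 input reads and ≥1 read per output. Fitness is the logarithm of genotype enrichment over wild-type enrichment, using inverse-variance-weighted replicate averages. The logarithm is base 2.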
row,Variant,polymerase ribozyme fitness (log ratio)
1,GACCAAUCUGCCCUCAGAGCUGGAGAACAUCUUCGCAUGCAUAGGAGGCAGGCUUCGGUGGCGCGAUAGCGCCAACGUCCUCAACCUCCAUUGCAUCCCACCACAUGAUGAAGCCUGAAGAGCCUUGGGUUUUUG,-4.65
2,GACCAAUCUGCCCUCAGAGCUGAAGAACAUCUUCGGAUGCAGAGGAGGCAGGCUUCGGUGGCGCGAUAGCGCCAACGUCCUCAACCUCUAAUGCAUCCCACCACAUGAUGAUGUCUGAAGAGCCUUGGUUUUUUG,-4.41
3,GACCAAUCUGCCCUCAGAGCUUGAGAACAUCUUCGGAUGCAGAGGCGGCAGGCUUCGGUGACGCGAUAGCGCCAACGUCCUCAACCUCCAAUGCAUCCCACCACAUGAUGAUGCCUGAAGAGCCUUGGUUUUUUG,-4.91
4,GACCAAUCUGCCCUCAGAGCUGGAGAACAUCUUCGGAUGCAGAGGAGGCAGGCUUCGGUGGCGCGAUAGCGCCAACGUCCUCAACCACCAAUGCAUCCCACCACAUGAUGAUUCCUGAAGAGCCUUGGUUUUUUG,-6.04
5,GACCAAUCUGCCCUCAGAGCUUGAGAACAUCUUCGGUUGCAGAGGAGGCAGGCUUCGGUGGCGCGAUAUCGCCAACGCCCUCAACCUCCAAUGCAUCCCACCACAUGAUUAUGCAUGAAGAGCGUUGGUUUUUUG,-3.86
6,GACCAAUCUGCCCUCAGAGCUGGAGAACAUCUUCGGAUGCAGAGGAGGCAGGCUUCGGUGGCGCGAUAGCGCCAACGUCCUCAACCUCCAAUCCAUCCCACCGCAUGAUUAUGCCUGAAGAGCCUUGGUUUUUUG,-6.45
7,GACCAAUCUGCCCUCAGAGCUUGAGAACAUCUUCGGAUGCAGAGGAGGCAGGAUUCGGUGGCGCGAUAGCGCCAACGUCCUCAACCUCCAAUGCAUCCCACCACAUGAUGAUGCCUGAAGAGCCUUGGUUUUUUG,-4.52
8,GACCAAUCUGCCCUCAGAGCUUGAGAACAUCUUCGGAUGCAGAGGAGGCAGGGUUCGGUGGCGCGAUAGCGCCAACGUCCUCAACCUCCAAUGCAUCCCACCACAUGAUGAUGCCUGAAGAGCCUUGGUUUUUUG,-4.85
9,GACCAAUCUGCCCUCAGAGCUUGAGAACAUCUUCGGAUGCAGAGGAGGCGGGCUUCGGUGGCGCGAUAGCGCCAACGUCCUCAACCUCCAAUGCAUCCCACCAUAUGAUGAUGCCUGAAGAGCCUUGGUUUUUUG,-3.86
10,GACCAAUCUGCCCUCAGAGCUGGAGAACAUCUUCGGAUGCAGAGUAGGCAGGCUUGGGUGGCGCGAUAGCGCCAACGUCCUCAACCUCCAAUGCAUCCCACCACAUGAUGUUGCCUGAAGAGCCUUGGUUUUUUG,-3.8
11,GACCAAUCUGCCCUCAGAGCUGGAGAACAUCUUCGGAUGCAGAGGAGGCAAGCUUCGGUGGCGCGAUAGCGCCAACGUCCACAACCUCCAAUGCAUCCCACCACAUGAUGAUGCUUGAAGAGCCUUGGUAUUUUG,-5.32
12,GACCAAUCUGCCCUCAGAGCUUGAGAACAUCUUCGGAUGCAGAGGAGGCAGGCUUAGGUGGCGCGAUAGCGCCAACGUCCUCAACCUCCAAUGCAUCCCACCACAUGAUGAUGCCUGAAGAGCCUUGGUUUUUUG,-5.17
13,GACCAAUCUGCCCUCAGAGCUGGAGAACAUCUUCGGAUGCAGAGAAGGCAGGCUUCGGUGGCGCGAUAGCGCCAACGUCCUCAACCUGCAAUGCAUCCCACCACAUGAUGAUGCCUGAAGAGCCUUGGUUUUUUG,-4.78
14,GACCAAUCUGCCCUCAGAGCUGGAGAACAUCUUCGGAUGCAGAGGAGACAGGCUUCGGUGGCGCGAUACCGCCAACGACCUCAACCCCCAAUGCAUCCCACCACAUGAUGAUGCCUGAAGAGCCUUGGUUUUUUG,-5.69
15,GACCAAUCUGCCCUCAGAGCUUGAGAACAUCUUCGGAUGCAGAGGAGGCAGGCUUCGGUGGCGCGAUAGCGCCAACGUCCUCAACCUCCGAUGCAUCCCAACACAUGAUGAUGACUGAAGAGCCUUGGUUUUUUG,-5.96
16,GACCAAUCUGCCCUCAGAGCUUGAGAACAUCUUCGGAUGCAGAGGAGGCAGGCUUCGGUGGCGCGAUAGCGCCAACGUCCUCACCCUCCAAUGCAUCCCACCACAUGAUGAUGCCUGAAGAGCCUUGGUUUUUUG,-4.07
17,GACCAAUCUGCCCUCAGAGCUGGAGAACAUCUUCGGAUGCAGAGGAGGCAGGCUUCGGUGGCGCGAUAGCGCCAAUCUCCUCAACCUCCAAUGCAUCCCACCACAUGAUGAUGCCUGAAGAGCUUUGGUUGUUUG,-3.47
18,GACCAAUCUGCCCUCAGAGCUUGAGAACAUCUUCGGAUGCAGAGGCGGCAGGCUUCGGUGGCGCGAUAGCGCCAACGUCCUCAACCUCCAAUGCAUCCCACCACAUGAUGAUGCCUGAAGAGCCUUGGUUUUUUG,-3.65
19,GACCAAUCUGCCCUCAGAGCUUGAGAACAUCUUCGGAUGCAGAGGAGGCAGGCUUAGGUGGCGCGAUAUCGCCAACGCCCUCAACCUCCAAUGCAUCCCACCACAUGAUGAUGCCUGAAGAGCCUUGGUUUUUUG,-3.41
20,GACCAAUCUGCCCUCAGAGCUGGAGAACAUCUUCGGAUGCAGAGGAGGCAGGCUUCGGUGGCGCGAUAUCGCCAACGUCCUCAACCUCCAAUGCAUCCCACCACAUGAUGAAGCCUGUAGAGCCUUGGUUUUUUG,-0.675
21,GACCAAUCUGCCCUCAGAGCUGGAGAACAUCUUCGGAUGCAGAGGAGGCAAGCUUCGGUGGCGCGAUAGCGGCAACGUCCUCAACCUCCAAUGCAUCCCACCACAUGAUGAUGCCUGAAGAGCCUUGGUUUUUUG,-4.82
